In patent publication US20230348603A1 (VERSEAU THERAPEUTICS, published 2023):

T1: Cynomolgus Monkey VSIG4-L-His (cynomolgus monkey)
T1 construct: ECD with His tag; also called cyVSIG4-L; cyno VSIG4-L-His
T1 chain: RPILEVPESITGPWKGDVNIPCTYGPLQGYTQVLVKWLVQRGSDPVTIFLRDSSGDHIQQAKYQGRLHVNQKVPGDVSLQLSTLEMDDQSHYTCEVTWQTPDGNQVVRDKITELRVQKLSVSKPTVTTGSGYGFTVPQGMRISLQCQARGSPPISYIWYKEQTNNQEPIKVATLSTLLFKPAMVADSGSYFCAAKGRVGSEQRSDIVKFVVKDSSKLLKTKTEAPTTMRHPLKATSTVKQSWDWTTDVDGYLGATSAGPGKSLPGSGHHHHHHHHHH

T2: Human VSIG4-L-His (human, UniProt Q9Y279 20-283)
T2 construct: long isoform ECD with His tag; also called hVSIG4-L
T2 sequence: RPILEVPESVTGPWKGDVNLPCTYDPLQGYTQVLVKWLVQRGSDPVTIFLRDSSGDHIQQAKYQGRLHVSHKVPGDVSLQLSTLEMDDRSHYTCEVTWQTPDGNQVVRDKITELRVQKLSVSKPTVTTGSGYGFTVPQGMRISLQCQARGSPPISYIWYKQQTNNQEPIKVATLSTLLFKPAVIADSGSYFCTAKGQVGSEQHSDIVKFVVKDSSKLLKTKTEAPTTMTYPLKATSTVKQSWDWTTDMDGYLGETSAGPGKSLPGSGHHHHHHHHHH


Legend:
Human VSIG4-L-Fc [1] = biological target: T3, Human VSIG4-L-Fc (human); assay: ELISA, Fab P.E. 1:5 on coated antigen;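 also: mouse Fab P.E. samples in 1% skimmed milk PBS, bound to antigen-coated wells for 1 h at room temperature, read as absorbance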
T3 construct: also called hVSIG4-L-Fc; hVSIG4-L
Target sequence in this assay (chain, as listed by the source limits assumed): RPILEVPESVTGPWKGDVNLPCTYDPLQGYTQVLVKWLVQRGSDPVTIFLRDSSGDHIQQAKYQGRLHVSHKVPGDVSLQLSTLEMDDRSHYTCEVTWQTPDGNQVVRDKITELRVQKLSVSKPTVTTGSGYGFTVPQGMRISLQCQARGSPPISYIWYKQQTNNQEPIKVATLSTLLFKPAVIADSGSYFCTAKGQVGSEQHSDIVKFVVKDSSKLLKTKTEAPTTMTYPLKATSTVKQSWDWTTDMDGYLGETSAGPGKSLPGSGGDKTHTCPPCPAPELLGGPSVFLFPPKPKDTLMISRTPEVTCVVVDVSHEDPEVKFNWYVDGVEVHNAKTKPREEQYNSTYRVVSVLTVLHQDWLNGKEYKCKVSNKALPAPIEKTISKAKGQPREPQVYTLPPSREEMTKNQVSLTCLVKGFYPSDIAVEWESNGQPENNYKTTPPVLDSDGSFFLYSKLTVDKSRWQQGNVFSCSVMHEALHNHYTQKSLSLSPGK
Description: (§1) Coated microplates were blocked with dried skimmed milk at 4% in PBS. P.E. samples of the mouse unique Fab sequences were diluted 1:5 in assay buffer (1% dried skimmed milk in PBS), and 100 μl of diluted sample was added onto the coated wells and incubated for one hour at room temperature. […] Optical density (OD) at 450 nm was determined using a standard absorbance microplate reader.

Human VSIG4-S-Fc = biological target: T4, Human VSIG4-S-Fc (human); assay: ELISA, Fab P.E. 1:5 on coated antigen;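 also: mouse Fab P.E. samples in 1% skimmed milk PBS, bound to antigen-coated wells for 1 h at room temperature, read as absorbance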
T4 construct: short isoform ECD fused to human Fc1; also called hVSIG4-S
T4 sequence (chain, as listed by the source limits assumed): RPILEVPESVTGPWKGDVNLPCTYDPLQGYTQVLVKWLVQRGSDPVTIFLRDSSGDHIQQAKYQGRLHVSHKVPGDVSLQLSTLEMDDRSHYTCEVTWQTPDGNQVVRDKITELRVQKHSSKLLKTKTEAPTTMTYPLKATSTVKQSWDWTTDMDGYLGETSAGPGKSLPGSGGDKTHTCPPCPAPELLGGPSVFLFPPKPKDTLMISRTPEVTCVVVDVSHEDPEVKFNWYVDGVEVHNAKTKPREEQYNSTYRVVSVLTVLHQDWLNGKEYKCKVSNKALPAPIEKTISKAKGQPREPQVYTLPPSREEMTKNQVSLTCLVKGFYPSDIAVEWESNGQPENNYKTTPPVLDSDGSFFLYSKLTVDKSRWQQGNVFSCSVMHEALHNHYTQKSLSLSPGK
Description: as §1

[2] = biological target: T1, Cynomolgus Monkey VSIG4-L-His; assay: ELISA, Fab P.E. 1:5 on coated antigen;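 also: mouse Fab P.E. samples in 1% skimmed milk PBS, bound to antigen-coated wells for 1 h at room temperature, read as absorbance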
Description: as §1

Human VSIG4-L-Fc [3] = biological target: T3, Human VSIG4-L-Fc; assay: blocking ELISA, biotin-C3b on coated hVSIG4-L-Fc
Description: (§2) Coated microplates were blocked with casein (Sigma-Aldrich, St. Louis, MO) at 1% in PBS. […] One hundred ill of the mixed sample was added onto the coated wells and incubated for one hour at room temperature. […] OD at 450 nm was determined using a standard absorbance microplate reader.

Human VSIG4-L-Fc [4] = biological target: T3, Human VSIG4-L-Fc; assay: blocking ELISA, biotin-iC3b on coated hVSIG4-L-Fc
Description: as §2

Human VSIG4-L-His = biological target: T2, Human VSIG4-L-His; assay: SPR (Biacore T200), Fab P.E. 1:5 over immobilised antigen

| ELISA OD450 (Human VSIG4-L-Fc [1]) | ELISA OD450 (Human VSIG4-S-Fc) | ELISA OD450 [2] | Percent Blocking C3b (Human VSIG4-L-Fc [3]) | Percent Blocking iC3b (Human VSIG4-L-Fc [4]) | koff (Human VSIG4-L-His) | Binder |
| --- | --- | --- | --- | --- | --- | --- |
| 4.33 OD450 | 4.32 OD450 | 4.37 OD450 | 88.8% | 88.7% | 0.00037 s⁻¹ | 14C05 mouse Fab (periplasmic extract) (Fab, V domains shown, mouse Fab with C-terminal His6-c-myc tag) VH: EVMLVESGPELKKPGETVKISCKASGYTFTNYGMNWVKQAPGKGLKWMGSINTYTGEATYADDFKGRFAFSLETSANTAYLQIDNLKNEDTATYFCARGDYYGRGTWFAYWGQGTLVTVSA VL: ETTVTQSHKFMSTSVGDRVSITCKASQDVSTAVAWYQQKPGQSPKLLIYSASYRYPGVPDRFTGSGSGTDFTFTISSVQAEDLAVYYCQQDYSSPWTFGGGTKLEIK |
| 4.32 OD450 | 4.18 OD450 | 4.32 OD450 | 70.3% | 56% | 0.0063 s⁻¹ | 14D12 mouse Fab (periplasmic extract) (Fab, V domains shown, mouse Fab with C-terminal His6-c-myc tag) VH: QIQLVQSGPELKKPGETVKISCKASGYTFTNYGMNWVKQTPGKGLKWMGLINTYTGEPTYADDFKGRFAFSLETSASTAYLQINNLKNEDMATYFCARERIYGYLHYFDYWGQGTTLTVSS VL: DVVMTQTPASLAVSLGQRATISCKASQSVDYDGDSYMNWYQQKPGQPPKLLIYAASNLESGIPARFSGSGSGTDFTLNIHPVEEEDAATYYCQQSNEDPRTFGGGTKLEIK |
